{"source": "paper PMC3111191", "about": "“Molecular Evolution of Multiple Arylalkylamine N-Acetyltransferase (AANAT) in Fish” (Marine Drugs, 2011)", "proteins": {"B1": {"name": "AANAT2 (Sparus aurata) (protein)", "chain": "MTQQVSGSPFFKPFFLKTPVSLLRQRRHTLPASEFRNLTPQDAISVFEIEREAFVSVSGECPLTLDEVLNFLGQCPELSLGWFEEGQLVAFIIGSGWGKERLSQEAMTQHVPDSPAVHIHVLSVHRHCRQQGKGSILLWRFLQYLRCIPGLRRALLICEEYLVPFYQKAGFKEKGPSAISISNMQFQEMEYTIGGQAYTRRNSGC"}, "B2": {"name": "AANAT2 (Sparus aurata; I157M) (protein)", "chain": "B1 chain with I157M"}, "B3": {"name": "AANAT2 (Sparus aurata; S123A) (protein)", "chain": "B1 chain with S123A"}, "B4": {"name": "AANAT2 (Sparus aurata; G73T/L69R/N70H/Q74L) (protein)", "chain": "B1 chain with L69R, N70H, G73T, Q74L"}}, "note": "Positions count from the first letter of the chain named. Names may count otherwise."}
{"substrate": "NCCc1c[nH]c2ccccc12", "assay": "colorimetric assay of CoASH release, non-linear regression", "format": "biochemical, Sparus aurata", "conditions": "near-saturating AcCoA; apparent Km", "units": {"Km": "µM"}}
{"protein": "B1", "Km": 2000}
{"protein": "B2", "Km": 900}
{"protein": "B3", "Km": 650}
{"protein": "B4", "Km": 1200}
{"substrate": "NCCc1c[nH]c2ccc(O)cc12", "assay": "colorimetric assay of CoASH release, non-linear regression", "format": "biochemical, Sparus aurata", "conditions": "near-saturating AcCoA; apparent Km", "units": {"Km": "µM"}}
{"protein": "B1", "Km": 2200}
{"protein": "B2", "Km": 940}
{"protein": "B3", "Km": 650}
{"protein": "B4", "Km": 880}
